According to article PMC7732191 (Science Advances, 2020):

Target: the molecule itself
Test: cryo-EM structure

B1: full-length human KCC2a (potassium-chloride cotransporter 2, SLC12A5) (natural protein, UniProt Q9H2X9-1 1-1139, looked up)
chain: MSRRFTVTSLPPAGPARSPDPESRRHSVADPRHLPGEDVKGDGNPKESSPFINSTDTEKGKEYDGKNMALFEEEMDTSPMVSSLLSGLANYTNLPQGSREHEEAENNEGGKKKPVQAPRMGTFMGVYLPCLQNIFGVILFLRLTWVVGIAGIMESFCMVFICCSCTMLTAISMSAIATNGVVPAGGSYYMISRSLGPEFGGAVGLCFYLGTTFAGAMYILGTIEILLAYLFPAMAIFKAEDASGEAAAMLNNMRVYGTCVLTCMATVVFVGVKYVNKFALVFLGCVILSILAIYAGVIKSAFDPPNFPICLLGNRTLSRHGFDVCAKLAWEGNETVTTRLWGLFCSSRFLNATCDEYFTRNNVTEIQGIPGAASGLIKENLWSSYLTKGVIVERSGMTSVGLADGTPIDMDHPYVFSDMTSYFTLLVGIYFPSVTGIMAGSNRSGDLRDAQKSIPTGTILAIATTSAVYISSVVLFGACIEGVVLRDKFGEAVNGNLVVGTLAWPSPWVIVIGSFFSTCGAGLQSLTGAPRLLQAISRDGIVPFLQVFGHGKANGEPTWALLLTACICEIGILIASLDEVAPILSMFFLMCYMFVNLACAVQTLLRTPNWRPRFRYYHWTLSFLGMSLCLALMFICSWYYALVAMLIAGLIYKYIEYRGAEKEWGDGIRGLSLSAARYALLRLEEGPPHTKNWRPQLLVLVRVDQDQNVVHPQLLSLTSQLKAGKGLTIVGSVLEGTFLENHPQAQRAEESIRRLMEAEKVKGFCQVVISSNLRDGVSHLIQSGGLGGLQHNTVLVGWPRNWRQKEDHQTWRNFIELVRETTAGHLALLVTKNVSMFPGNPERFSEGSIDVWWIVHDGGMLMLLPFLLRHHKVWRKCKMRIFTVAQMDDNSIQMKKDLTTFLYHLRITAEVEVVEMHESDISAYTYEKTLVMEQRSQILKQMHLTKNEREREIQSITDESRGSIRRKNPANTRLRLNVPEETAGDSEEKPEEEVQLIHDQSAPSCPSSSPSPGEEPEGEGETDPEKVHLTWTKDKSVAEKNKGPSPVSSEGIKDFFSMKPEWENLNQSNVRRMHTAVRLNEVIVKKSRDAKLVLLNMPGPPRNRNGDENYMEFLEVLTEHLDRVMLVRGGGREVITIYS
modifications: N-acetylglucosamine (glycosylation) at multiple Asn residues of the ECD
stoichiometry N: 2
